Source: patent publication US20230357348A1 (AstraZeneca / MedImmune, published 2023)
Starred links: 1 amine or outer side, 2 acyl side, 3 side chain; linkers in the order of their positions; H or OH if unused. Non-standard residues stand in square brackets, D forms with d. Groups on a side chain read outwards from the residue. No end group written: not given here. *: point of attachment. C20 diacid = O=C(O)CCCCCCCCCCCCCCCCCCC(=O)*; C18 diacid = O=C(O)CCCCCCCCCCCCCCCCC(=O)*; γGlu = O=C(O)[C@H](CCC(=O)[*:2])N[*:1]; αMeF = C[C@](N)(Cc1ccccc1)C(=O)O; AEEA = NCCOCCOCC(=O)O; Aib = CC(C)(N)C(=O)O

Experiments:
[1] = target: human glucagon receptor (hGCGR) (human, UniProt P47871 26-477); assay: cell-based or functional assay
[2] = target: human GLP-1 receptor (hGLP-1R) (human, UniProt P43220 24-463); assay: cell-based or functional assay

Sequence of human glucagon receptor (hGCGR) (P47871 26-477): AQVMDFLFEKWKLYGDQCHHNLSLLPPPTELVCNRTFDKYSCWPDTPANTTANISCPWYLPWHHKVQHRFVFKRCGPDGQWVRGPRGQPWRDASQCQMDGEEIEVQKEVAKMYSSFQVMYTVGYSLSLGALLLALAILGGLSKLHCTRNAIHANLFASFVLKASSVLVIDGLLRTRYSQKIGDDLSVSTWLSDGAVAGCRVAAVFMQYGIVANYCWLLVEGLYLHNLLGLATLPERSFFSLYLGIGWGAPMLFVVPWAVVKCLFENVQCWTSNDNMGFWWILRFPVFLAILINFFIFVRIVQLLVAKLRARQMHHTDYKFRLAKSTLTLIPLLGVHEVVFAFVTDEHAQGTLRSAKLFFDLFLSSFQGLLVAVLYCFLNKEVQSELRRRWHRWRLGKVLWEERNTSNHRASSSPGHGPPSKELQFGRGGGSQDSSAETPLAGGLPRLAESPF

| Binder | hGluc-R EC50 (pM) [1] [pM] | hGLP-1R EC50 (pM) [2] [pM] |
| --- | --- | --- |
| H[Aib]QGTFTSDVSK[αMeF]LDKK([AEEA-AEEA-γGlu-C20 diacid])RALDFVRWLL[Aib]E-NH2 (N-terminus assumed; SMILES CC(C)C[C@H](NC(=O)[C@H](C)NC(=O)[C@H](CCCNC(=N)N)NC(=O)[C@H](CCCCNC(=O)COCCOCCNC(=O)COCCOCCNC(=O)CC[C@H](NC(=O)CCCCCCCCCCCCCCCCCCC(=O)O)C(=O)O)NC(=O)[C@H](CCCCN)NC(=O)[C@H](CC(=O)O)NC(=O)[C@H](CC(C)C)NC(=O)[C@](C)(Cc1ccccc1)NC(=O)[C@H](CCCCN)NC(=O)[C@H](CO)NC(=O)[C@@H](NC(=O)[C@H](CC(=O)O)NC(=O)[C@H](CO)NC(=O)[C@@H](NC(=O)[C@H](Cc1ccccc1)NC(=O)[C@@H](NC(=O)CNC(=O)[C@H](CCC(N)=O)NC(=O)C(C)(C)NC(=O)[C@@H](N)Cc1c[nH]cn1)[C@@H](C)O)[C@@H](C)O)C(C)C)C(=O)N[C@@H](CC(=O)O)C(=O)N[C@@H](Cc1ccccc1)C(=O)N[C@H](C(=O)N[C@@H](CCCNC(=N)N)C(=O)N[C@@H](Cc1c[nH]c2ccccc12)C(=O)N[C@@H](CC(C)C)C(=O)N[C@@H](CC(C)C)C(=O)NC(C)(C)C(=O)N[C@@H](CCC(=O)O)C(N)=O)C(C)C) [Peptide 452] | 151 | 495 |
| H[Aib]QGTFTSDVSK[αMeF]LDKK([AEEA-AEEA-γGlu-C20 diacid])RAQDFVRWLEA[Aib]G-NH2 (N-terminus assumed; SMILES CC(C)C[C@H](NC(=O)[C@H](Cc1c[nH]c2ccccc12)NC(=O)[C@H](CCCNC(=N)N)NC(=O)[C@@H](NC(=O)[C@H](Cc1ccccc1)NC(=O)[C@H](CC(=O)O)NC(=O)[C@H](CCC(N)=O)NC(=O)[C@H](C)NC(=O)[C@H](CCCNC(=N)N)NC(=O)[C@H](CCCCNC(=O)COCCOCCNC(=O)COCCOCCNC(=O)CC[C@H](NC(=O)CCCCCCCCCCCCCCCCCCC(=O)O)C(=O)O)NC(=O)[C@H](CCCCN)NC(=O)[C@H](CC(=O)O)NC(=O)[C@H](CC(C)C)NC(=O)[C@](C)(Cc1ccccc1)NC(=O)[C@H](CCCCN)NC(=O)[C@H](CO)NC(=O)[C@@H](NC(=O)[C@H](CC(=O)O)NC(=O)[C@H](CO)NC(=O)[C@@H](NC(=O)[C@H](Cc1ccccc1)NC(=O)[C@@H](NC(=O)CNC(=O)[C@H](CCC(N)=O)NC(=O)C(C)(C)NC(=O)[C@@H](N)Cc1c[nH]cn1)[C@@H](C)O)[C@@H](C)O)C(C)C)C(C)C)C(=O)N[C@@H](CCC(=O)O)C(=O)N[C@@H](C)C(=O)NC(C)(C)C(=O)NCC(N)=O) [Peptide 454] | 274 | 173 |
| H[Aib]QGTFTSDVSK[αMeF]LDKK([AEEA-AEEA-γGlu-C20 diacid])RAQDFVRWLLE[Aib]G-NH2 [Peptide 453] | 162 | 170 |
| H[Aib]QGTFTSDVSK[αMeF]LDKK([AEEA-AEEA-γGlu-γGlu-C20 diacid])RAQDFVRWLL[Aib]E-NH2 (N-terminus assumed; SMILES CC(C)C[C@H](NC(=O)[C@H](Cc1c[nH]c2ccccc12)NC(=O)[C@H](CCCNC(=N)N)NC(=O)[C@@H](NC(=O)[C@H](Cc1ccccc1)NC(=O)[C@H](CC(=O)O)NC(=O)[C@H](CCC(N)=O)NC(=O)[C@H](C)NC(=O)[C@H](CCCNC(=N)N)NC(=O)[C@H](CCCCNC(=O)COCCOCCNC(=O)COCCOCCNC(=O)CC[C@H](NC(=O)CC[C@H](NC(=O)CCCCCCCCCCCCCCCCCCC(=O)O)C(=O)O)C(=O)O)NC(=O)[C@H](CCCCN)NC(=O)[C@H](CC(=O)O)NC(=O)[C@H](CC(C)C)NC(=O)[C@](C)(Cc1ccccc1)NC(=O)[C@H](CCCCN)NC(=O)[C@H](CO)NC(=O)[C@@H](NC(=O)[C@H](CC(=O)O)NC(=O)[C@H](CO)NC(=O)[C@@H](NC(=O)[C@H](Cc1ccccc1)NC(=O)[C@@H](NC(=O)CNC(=O)[C@H](CCC(N)=O)NC(=O)C(C)(C)NC(=O)[C@@H](N)Cc1c[nH]cn1)[C@@H](C)O)[C@@H](C)O)C(C)C)C(C)C)C(=O)N[C@@H](CC(C)C)C(=O)NC(C)(C)C(=O)N[C@@H](CCC(=O)O)C(N)=O) [Peptide 455] | 114 | 127 |
| H[Aib]QGTFTSDVSK[αMeF]LDKK([AEEA-AEEA-γGlu-C20 diacid])RARDFVLWLL[Aib]E-NH2 (N-terminus assumed; SMILES CC(C)C[C@H](NC(=O)[C@H](Cc1c[nH]c2ccccc12)NC(=O)[C@H](CC(C)C)NC(=O)[C@@H](NC(=O)[C@H](Cc1ccccc1)NC(=O)[C@H](CC(=O)O)NC(=O)[C@H](CCCNC(=N)N)NC(=O)[C@H](C)NC(=O)[C@H](CCCNC(=N)N)NC(=O)[C@H](CCCCNC(=O)COCCOCCNC(=O)COCCOCCNC(=O)CC[C@H](NC(=O)CCCCCCCCCCCCCCCCCCC(=O)O)C(=O)O)NC(=O)[C@H](CCCCN)NC(=O)[C@H](CC(=O)O)NC(=O)[C@H](CC(C)C)NC(=O)[C@](C)(Cc1ccccc1)NC(=O)[C@H](CCCCN)NC(=O)[C@H](CO)NC(=O)[C@@H](NC(=O)[C@H](CC(=O)O)NC(=O)[C@H](CO)NC(=O)[C@@H](NC(=O)[C@H](Cc1ccccc1)NC(=O)[C@@H](NC(=O)CNC(=O)[C@H](CCC(N)=O)NC(=O)C(C)(C)NC(=O)[C@@H](N)Cc1c[nH]cn1)[C@@H](C)O)[C@@H](C)O)C(C)C)C(C)C)C(=O)N[C@@H](CC(C)C)C(=O)NC(C)(C)C(=O)N[C@@H](CCC(=O)O)C(N)=O) [Peptide 451] | 503 | 895 |
| H[Aib]QGTFTSDVSK[αMeF]LDKK([AEEA-AEEA-γGlu-γGlu-C18 diacid])RAQDFVRWLLE[Aib]G-OH (N-terminus assumed; SMILES CC(C)C[C@H](NC(=O)[C@H](Cc1c[nH]c2ccccc12)NC(=O)[C@H](CCCNC(=N)N)NC(=O)[C@@H](NC(=O)[C@H](Cc1ccccc1)NC(=O)[C@H](CC(=O)O)NC(=O)[C@H](CCC(N)=O)NC(=O)[C@H](C)NC(=O)[C@H](CCCNC(=N)N)NC(=O)[C@H](CCCCNC(=O)COCCOCCNC(=O)COCCOCCNC(=O)CC[C@H](NC(=O)CC[C@H](NC(=O)CCCCCCCCCCCCCCCCC(=O)O)C(=O)O)C(=O)O)NC(=O)[C@H](CCCCN)NC(=O)[C@H](CC(=O)O)NC(=O)[C@H](CC(C)C)NC(=O)[C@](C)(Cc1ccccc1)NC(=O)[C@H](CCCCN)NC(=O)[C@H](CO)NC(=O)[C@@H](NC(=O)[C@H](CC(=O)O)NC(=O)[C@H](CO)NC(=O)[C@@H](NC(=O)[C@H](Cc1ccccc1)NC(=O)[C@@H](NC(=O)CNC(=O)[C@H](CCC(N)=O)NC(=O)C(C)(C)NC(=O)[C@@H](N)Cc1c[nH]cn1)[C@@H](C)O)[C@@H](C)O)C(C)C)C(C)C)C(=O)N[C@@H](CC(C)C)C(=O)N[C@@H](CCC(=O)O)C(=O)NC(C)(C)C(=O)NCC(=O)O) [Peptide 450] | 57.8 | 57.3 |
